Assay results: IntAct's records for PubMed 24413684

B1: Programmed cell death protein 4 (Homo sapiens), Q53EL6 (parent)
chain: MDVENEQILNVNPADPDNLSDSLFSGDEENAGTEEIKNEINGNWISASSINEARINAKAKRRLRKNSSRDSGRGDSVSDSGSDALRSGLTVPTSPKGRLLDRRSRSGKGRGLPKKGGAGGKGVWGTPGQVYDVEEVDVKDPNYDDDQENCVYETVVLPLDERAFEKTLTPIIQEYFEHGDTNEVAEMLRDLNLGEMKSGVPVLAVSLALEGKASHREMTSKLLSDLCGTVMSTTDVEKSFDKLLKDLPELALDTPRAPQLVGQFIARAVGDGILCNTYIDSYKGTVDCVQARAALDKATVLLSMSKGGKRKDSVWGSGGGQQSVNHLVKEIDMLLKEYLLSGDISEAEHCLKELEVPHFHHELVYEAIIMVLESTGESTFKMILDLLKSLWKSSTITVDQMKRGYERIYNEIPDINLDVPHSYSVLERFVEECFQAGIISKQLRDLCPSRGRKRFVSEGDGGRLKPESY

Variants of: B1
Conditions: with if4a1_human EIF4A1, P60842
if4a1_human EIF4A1, P60842, sequence (P60842 whole entry): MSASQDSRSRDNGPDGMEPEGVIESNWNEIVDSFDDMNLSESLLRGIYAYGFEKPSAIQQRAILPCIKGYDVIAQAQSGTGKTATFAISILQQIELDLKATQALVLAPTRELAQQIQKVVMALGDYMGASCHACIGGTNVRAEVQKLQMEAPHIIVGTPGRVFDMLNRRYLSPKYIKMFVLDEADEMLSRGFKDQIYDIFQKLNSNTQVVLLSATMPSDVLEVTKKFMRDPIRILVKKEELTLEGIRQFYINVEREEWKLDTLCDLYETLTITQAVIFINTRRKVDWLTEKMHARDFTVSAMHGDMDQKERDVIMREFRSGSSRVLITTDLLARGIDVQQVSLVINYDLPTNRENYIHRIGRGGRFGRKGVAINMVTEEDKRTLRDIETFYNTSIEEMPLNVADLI

Row | Variant | effect of a mutation on the interaction
1 | D418A | decreasing interaction
2 | D253A;D418A | decreasing interaction
